The values below come from US20200199233A1.

Assay [1] addresses human MUC16 on cells (OVCAR-3, PEO1, 3T3/hβ2M/HLA-A2/NYESO1p/hMUC16) (human). The assay can be described thus: flow cytometry ('FACS binding', MFI_PE) on cells, the same assay as the other two curves. The control's curve is flat at baseline, so this is a fit value without a response. The unit is taken from the axis, Log10 (M).
For assay [2] the target is unchanged. The assay can be described thus: flow cytometry ('FACS binding', MFI_PE) on cells. The sheet names no cell line; the legend of FIGS. 2A-2I names PEO1 (endogenous MUC16). The unit is taken from the axis, Log10 (M).
For assay [3] the target is unchanged. The assay is described as follows: cell-based or functional assay.
The target of a further assay is mCD28.mmh (mouse). The assay is described as follows: SPR (Biacore), 37 C, antibody captured by anti-human Fc, mCD28.mmh injected.
Chain of mCD28.mmh (mouse) (chain, as listed by the source limits assumed): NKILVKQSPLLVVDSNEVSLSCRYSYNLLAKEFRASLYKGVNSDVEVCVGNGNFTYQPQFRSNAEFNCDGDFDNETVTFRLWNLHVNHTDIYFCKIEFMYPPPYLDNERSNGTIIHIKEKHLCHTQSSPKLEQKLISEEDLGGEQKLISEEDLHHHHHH
Another assay deals with hMUC16.mmh (human). The assay is described as follows: SPR (Biacore), 37 C, antibody captured by anti-human Fc, hMUC16.mmh injected.
Chain of hMUC16.mmh (human) (chain, as listed by the source limits assumed): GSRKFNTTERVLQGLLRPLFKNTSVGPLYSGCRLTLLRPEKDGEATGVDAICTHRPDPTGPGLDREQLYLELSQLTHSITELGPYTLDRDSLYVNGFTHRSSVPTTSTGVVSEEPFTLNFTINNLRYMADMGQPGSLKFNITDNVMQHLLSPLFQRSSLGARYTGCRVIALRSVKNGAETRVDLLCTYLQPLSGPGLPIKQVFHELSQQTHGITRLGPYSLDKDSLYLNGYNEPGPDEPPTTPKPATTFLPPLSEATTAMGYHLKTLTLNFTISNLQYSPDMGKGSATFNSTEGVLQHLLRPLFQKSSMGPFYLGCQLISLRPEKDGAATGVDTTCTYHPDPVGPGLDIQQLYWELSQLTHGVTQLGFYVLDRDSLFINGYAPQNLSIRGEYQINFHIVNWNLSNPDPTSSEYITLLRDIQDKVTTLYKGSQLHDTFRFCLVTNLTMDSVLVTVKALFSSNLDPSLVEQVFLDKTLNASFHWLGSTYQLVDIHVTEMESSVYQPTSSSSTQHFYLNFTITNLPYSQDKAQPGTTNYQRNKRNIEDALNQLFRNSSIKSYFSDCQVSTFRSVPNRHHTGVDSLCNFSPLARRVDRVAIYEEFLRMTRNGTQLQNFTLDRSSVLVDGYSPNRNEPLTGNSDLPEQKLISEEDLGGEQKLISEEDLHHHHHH

Several values for one entry are separate records, joined by “and”; a condition that tells them apart may be missing. Equal values may be shown once.

For the substance “CD3-BINDING CONTROL (bispecific antibody)”, the EC50 in assay [1] stood at 2270 pM.
Consider REGN4018 (bispecific antibody), for which, in assay [2], the EC50 amounted to 1840 pM. Moreover, in assay [3], the PEO1 Kill EC50 [M], human PBMCs, MUC16xCD3 as single agent is 1.27e-10 M; the PEO1 Kill EC50 [M], human PBMCs, MUC16xCD3 titrated in the presence of bs24963D is 1.07e-10 M and 5.31e-11 M; the PEO1 min. % viability, human PBMCs, MUC16xCD3 as single agent is 57%; the PEO1 min. % viability, human PBMCs, MUC16xCD3 titrated in the presence of bs24963D came out at 9.8%. Moreover, the PEO1 min. % viability, human PBMCs, MUC16xCD3 titrated in the presence of bs32897D in assay [3] is 17.7%.
Consider REGN4615 (bispecific antibody), for which, in the assay with mCD28.mmh (mouse), the Kd turned out to be 3760 pM, the T½ was 2.48 h, the koff is 7.77e-05 s⁻¹ and the kon worked out at 20700 M⁻¹ s⁻¹. In the assay with hMUC16.mmh (human), this substance gave a 90 nM hMUC16.mmh Bind (RU) of 513 RU, a Kd of 749 pM, a T½ of 0.408 h and a koff of 0.000472 s⁻¹. In the assay with hMUC16.mmh (human), this substance gave a kon of 629000 M⁻¹ s⁻¹.
